Laboratory results as given in patent publication US20210187106A1 (AstraZeneca / MedImmune, published 2021).

T1: recombinant human LIF receptor (hLIFR) (human, UniProt P42702 45-833, limits assumed)
T1 sequence (looked up): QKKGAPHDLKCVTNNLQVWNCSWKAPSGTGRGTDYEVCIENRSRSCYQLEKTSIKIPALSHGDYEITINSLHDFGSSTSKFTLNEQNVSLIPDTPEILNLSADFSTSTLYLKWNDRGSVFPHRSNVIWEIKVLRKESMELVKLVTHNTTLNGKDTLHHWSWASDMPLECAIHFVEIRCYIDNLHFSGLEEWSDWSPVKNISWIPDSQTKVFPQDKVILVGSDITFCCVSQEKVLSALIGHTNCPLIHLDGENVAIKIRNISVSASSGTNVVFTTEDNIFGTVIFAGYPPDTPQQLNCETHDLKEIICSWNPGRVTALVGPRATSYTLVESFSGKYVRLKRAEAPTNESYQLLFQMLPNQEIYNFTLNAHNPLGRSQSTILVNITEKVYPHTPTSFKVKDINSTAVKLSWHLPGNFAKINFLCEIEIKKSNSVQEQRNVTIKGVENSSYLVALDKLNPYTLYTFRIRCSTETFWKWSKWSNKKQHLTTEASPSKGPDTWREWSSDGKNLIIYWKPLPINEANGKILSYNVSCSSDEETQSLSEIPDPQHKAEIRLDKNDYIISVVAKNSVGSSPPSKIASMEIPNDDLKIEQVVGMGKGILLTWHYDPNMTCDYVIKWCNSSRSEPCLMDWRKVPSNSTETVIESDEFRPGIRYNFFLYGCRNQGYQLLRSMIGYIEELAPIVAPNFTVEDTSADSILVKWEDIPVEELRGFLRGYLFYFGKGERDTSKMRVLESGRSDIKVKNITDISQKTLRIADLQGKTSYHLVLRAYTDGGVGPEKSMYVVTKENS

T2: recombinant human gp130 (human, UniProt P40189 23-619, limits assumed)
T2 sequence (looked up): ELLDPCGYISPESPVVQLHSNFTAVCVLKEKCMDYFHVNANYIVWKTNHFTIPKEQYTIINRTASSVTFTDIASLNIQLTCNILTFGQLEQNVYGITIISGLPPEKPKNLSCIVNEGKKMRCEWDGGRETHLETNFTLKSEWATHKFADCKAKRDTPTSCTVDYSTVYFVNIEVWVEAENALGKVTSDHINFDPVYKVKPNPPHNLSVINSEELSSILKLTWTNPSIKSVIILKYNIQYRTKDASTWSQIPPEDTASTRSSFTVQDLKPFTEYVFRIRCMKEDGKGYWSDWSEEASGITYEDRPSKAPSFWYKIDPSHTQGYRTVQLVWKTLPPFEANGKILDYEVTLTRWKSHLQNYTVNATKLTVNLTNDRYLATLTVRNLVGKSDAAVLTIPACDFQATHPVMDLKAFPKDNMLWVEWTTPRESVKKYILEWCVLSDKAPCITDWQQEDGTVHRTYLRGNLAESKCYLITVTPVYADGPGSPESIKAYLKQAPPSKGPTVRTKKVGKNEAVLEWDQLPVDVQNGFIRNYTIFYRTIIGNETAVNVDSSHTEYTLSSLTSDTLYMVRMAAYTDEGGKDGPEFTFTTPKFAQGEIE

B1: human Leukemia Inhibitory Factor (LIF), expression source not stated (ligand)
chain: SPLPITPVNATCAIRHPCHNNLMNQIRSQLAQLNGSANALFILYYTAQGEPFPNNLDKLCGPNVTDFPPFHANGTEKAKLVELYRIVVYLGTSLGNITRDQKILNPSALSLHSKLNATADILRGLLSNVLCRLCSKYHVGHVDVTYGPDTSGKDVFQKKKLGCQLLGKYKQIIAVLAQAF
notes: also called hLIF; human LIF

How the values were obtained:
[1] = target: B1; assay: cell-based or functional assay
human IL-6 (E. coli) = target: T3, human IL-6 (E. coli) (human, UniProt P05231 30-212, limits assumed); assay: BLI (Octet), h5D8 amine-coupled to AR2G biosensors, cytokine as analyte; table legend: ND = no binding
T3 construct: also called huIL-6 (E. coli)
T3 sequence (P05231 30-212 limits assumed): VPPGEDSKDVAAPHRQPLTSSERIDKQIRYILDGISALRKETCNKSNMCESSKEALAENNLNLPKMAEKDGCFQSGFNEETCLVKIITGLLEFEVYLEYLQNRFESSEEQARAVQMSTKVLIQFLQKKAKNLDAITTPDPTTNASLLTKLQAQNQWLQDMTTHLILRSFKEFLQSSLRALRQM
Description: Kinetics experiments were then performed with the following Dip and Read steps at 30° C., 1000rpm: vi) 60 seconds Baseline in 1× kinetics buffer; vii) 180 seconds Association of appropriate serial dilutions of a cytokine in 1× kinetics buffer; viii) 300 seconds Dissociation in 1× kinetics buffer; ix) Three Regeneration/Neutralization cycles alternating between 10 mM glycine pH 2.0 and 1× kinetics buffer respectively (5 seconds in each for 3 cycles). Following regeneration, the biosensors were reused for subsequent binding analyses.

[2] = target: T1, recombinant human LIF receptor (hLIFR); assay: Octet RED96 control experiment, h5D8 captured on AHC biosensors
Excerpt: Subsequently, the biosensors were dipped in different concentrations of LIFR.

recombinant human gp130 = target: T2, recombinant human gp130; assay: ELISA, LIF pre-incubated with B09 and added to a plate coated with recombinant human gp130; the antibody part of the complex detected with peroxidase anti-rat IgG

IC50 for biological inhibition (pSTAT3, MSD assay) under serum starved conditions in U-251 cells [1] [picomolar] | binding result (human IL-6 (E. coli)) | binding result [2] | binding result (recombinant human gp130) | Binder
490 | no binding | no binding | – | h5D8 (humanized 5D8, H2L2 clone) (antibody, V domains shown, Humanized IgG tested as a bivalent antibody; Only VH and VL are tied to h5D8 by name; also called G (H2L2); H5D8-1 IgG) VH: QVQLQESGGGLVKPGGSLRLSCAASGFTFSHAWMHWVRQAPGKGLEWVGQIKAKSDDYATYYAESVKGRFTISRDDSKNTLYLQMNSLKTEDTAVYYCTCWEWDLDFWGQGTMVTVSS VL: DIVMTQTPLSSPVTLGQPASISCRSSQSLLDSDGHTYLNWLQQRPGQPPRLLIYSVSNLESGVPDRFSGSGAGTDFTLKISRVEAEDVGVYYCMQATHAPPYTFGQGTKLEIK
– | – | – | binds | B1
